Assay results as given in patent CN112592401A.

Biological target: 灭活非洲猪瘟病毒抗原 (非洲猪瘟全病毒)
Experiment: ELISA with whole ASFV, as in Fig. 6 (scFv coated, inactivated ASFV captured)

B1: 抗非洲猪瘟病毒的ScFv抗体VH-VLλ11 (scFv)
scFv: MEVKLVESGGGLVQPGGSLRLSCVGSEYEFRGSLIHWVRQAPGKGLEWLATICTTDPITEYADSVKGRFTISRDSSQNTAYLQMDSLRGEDTARYYCGVAFSYGGGCHRMDLRGQGVEVVVGGGGSGGMSQTVIQEPAMSVSPGGTVTLTCAFSSGSESTRKYPIRFQQTPGQPPRLLIYHTNSRPTGVPSRFSGAISGNKAALTITGAQAEDEADYFCSLYIRTYNVPFGGGTHLTVL
For B1, the OD450nm was 1.12 OD450nm.
